The test system of series [1] is HeLa Kyoto. As to the kind of experiment: solubility in G1/S (NP-40 vs SDS abundance) (log2 ratio); higher = more soluble. Particulars: cell cycle stage: G1/S.
The test system of series [2] is HeLa Kyoto. As to the kind of experiment: solubility change mitosis vs G1/S (difference of NP-40 vs SDS log2 ratios) (log2 ratio difference); higher = more soluble in mitosis.
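For solubility change mitosis vs G1/S (difference of NP-40 vs SDS log2 ratios) in this document: synchronized HeLa Kyoto cells (double thymidine block for G1/S, nocodazole release for mitosis), protein amounts in NP-40 versus SDS lysates quantified by mass spectrometry, three biological replicates.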
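For solubility in G1/S (NP-40 vs SDS abundance) in this document: HeLa Kyoto cells arrested at G1/S by double thymidine block, proteins quantified by TMT10plex mass spectrometry in mild NP-40 versus SDS extracts, three biological replicates.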

On to “MEGRSAAAETFVWVNNASAHSQSVAKAKYEFLFGRSEGKAPDTSDHGGSTLLPPNVTNEFPEYGTMEEGGEGLRASLEFDGEALPCHPQEQQGVQPLTGCHSGLDSVTEGPKDVREAPSQSHLKEQSLQPIDSLISALKATEARIISGTLQATKVLDQDAVSSFSVQQVEKELDTASRKTQRVNKTLPAGQKNLPEIPLSAEVTTEESFYLSIQKDLTALLTGDTQAEISQIMNNGRKGAVCVQEPSCPLASLGSSAVTCHSAGSVGFLKEQRSALGREHPGGCDRSSSMGRPGRVKHVEFQGVEILWTGGDKRETQHPIDFETSLQRTASPDSKESSKVPRHLISSAGLCNSSSLTENVWDESWKAPSERPGTSSGTFSPVRLDESGEDEVFLQENKQHLEKTPKPERDRERISEQEEHVKGEDEDILGPGYTEDSTDVYSSQFETILDNTSLYYSAESLETLYSEPDSYFSFEMPLTPMIQQRIKEGGQFLERTSGGGHQDILSVSADGGIVMGYSSGVTNGLNDASDSIYTKGTPEIAFWGSNAGVKTTRLEAHSEMGSTEILEKETPENLSNGTSSNVEAAKRLAKRLYQLDRFKRSDVAKHLGKNNEFSKLVAEEYLKFFDFTGMTLDQSLRYFFKAFSLVGETQERERVLIHFSNRYFYCNPDTIASQDGVHCLTCAIMLLNTDLHGHVNIGKKMTCQEFIANLQGVNEGVDFSKDLLKALYNSIKNEKLEWAVDDEEKKKSPSESTEEKANGTHPKTISRIGSTTNPFLDIPHDPNAAVYKSGFLARKIHADMDGKKTPRGKRGWKTFYAVLKGTVLYLQKDEYKPEKALSEEDLKNAVSVHHALASKATDYEKKPNVFKLKTADWRVLLFQTQSPEEMQGWINKINCVAAVFSAPPFPAAIGSQKKFSRPLLPATTTKLSQEEQLKSHESKLKQITTELAEHRSYPPDKKVKAKDVDEYKLKDHYLEFEKTRYEMYVSILKEGGKELLSNDESEAAGLKKSHSSPSLNPDTSPITAKVKRNVSERKDHRPETPSIKQKVT [PSD3]”, for which the “solubility in G1/S (log2)” value in series [1] was -0.107. For the same sequence, the “solubility change mitosis (log2)” value in series [2] was -0.00479.
Regarding “MEIAPQEAPPVPGADGDIEEAPAEAGSPSPASPPADGRLKAAAKRVTFPSDEDIVSGAVEPKDPWRHAQNVTVDEVIGAYKQACQKLNCRQIPKLLRQLQEFTDLGHRLDCLDLKGEKLDYKTCEALEEVFKRLQFKVVDLEQTNLDEDGASALFDMIEYYESATHLNISFNKHIGTRGWQAAAHMMRKTSCLQYLDARNTPLLDHSAPFVARALRIRSSLAVLHLENASLSGRPLMLLATALKMNMNLRELYLADNKLNGLQDSAQLGNLLKFNCSLQILDLRNNHVLDSGLAYICEGLKEQRKGLVTLVLWNNQLTHTGMAFLGMTLPHTQSLETLNLGHNPIGNEGVRHLKNGLISNRSVLRLGLASTKLTCEGAVAVAEFIAESPRLLRLDLRENEIKTGGLMALSLALKVNHSLLRLDLDREPKKEAVKSFIETQKALLAEIQNGCKRNLVLAREREEKEQPPQLSASMPETTATEPQPDDEPAAGVQNGAPSPAPSPDSDSDSDSDGEEEEEEEGERDETPCPALVPPTDSLGPGDRSPPGSPSTPTEQRISVSSPGRGHKVFVVTRVESPPERAEPPASPTPPSPPPPPSPPASPSLPPAGAIDTRDTGSSEPQPPPEPPRSGPPLPNGLKPEFALALPPEPPPGPEVKGGSCGLEHELSCSKNEKELEELLLEASQESGQETL [PPP1R37]”, in series [1], the “solubility in G1/S (log2)” value was 0.0581. Besides, the “solubility change mitosis (log2)” value in series [2] is -0.284.
“MEKLSALQEQKGELRKRLSYTTHKLEKLETEFDSTRHYLEIELRRAQEELEKVTEKLRRIQSNYMALQRINQELEDKLYRMGQHYEEEKRALSHEIVALNSHLLEAKVTIDKLSEDNELYRKDCNLAAQLLQCSQTYGRVHKVSELPSDFQERVSLHMEKHGCSLPSPLCHPAYADSVPTCVIAKVLEKPDPASLSSRLSDASARDLAFCDGVEKPGPRPPYKGDIYCSDTALYCPEERRRDRRPSVDAPVTDVGFLRAQNSTDSAAEEEEEAEAAAFPAGFQHEAFPSYAGSLPTSSSYSSFSATSEEKEHAQASTLTASQQAIYLNSRDELFDRKPPATTYEGSPRFAKATAAVAAPLEAEVAPGFGRTMSPYPAETFRFPASPGPQQALMPPNLWSLRAKPGTARLPGEDMRGQWRPLSVEDIGAYSYPVSAAGRASPCSFSERYYGGAGGSPGKKADGRASPLYASYKADSFSEGDDLSQGHLAEPCFLRAGGDLSLSPGRSADPLPGYAPSEGGDGDRLGVQLCGTASSPEPEQGSRDSLEPSSMEASPEMHPAARLSPQQAFPRTGGSGLSRKDSLTKAQLYGTLLN [BEGAIN]”: in series [1], the “solubility in G1/S (log2)” value came to 0.208. In series [2], the “solubility change mitosis (log2)” value came to 0.103.
The like results for “MEKLYSENEGMASNQGKMENEEQPQDERKPEVTCTLEDKKLENEGKTENKGKTGDEEMLKDKGKPESEGEAKEGKSEREGESEMEGGSEREGKPEIEGKPESEGEPGSETRAAGKRPAEDDVPRKAKRKTNKGLAHYLKEYKEAIHDMNFSNEDMIREFDNMAKVQDEKRKSKQKLGAFLWMQRNLQDPFYPRGPREFRGGCRAPRRDIEDIPYV [TCEAL4]” were, in that order, 0.49 and 0.452.
For “MEKPRSIEETPSSEPMEEEEDDDLELFGGYDSFRSYNSSVGSESSSYLEESSEAENEDREAGELPTSPLHLLSPGTPRSLDGSGSEPAVCEMCGIVGTREAFFSKTKRFCSVSCSRSYSSNSKKASILARLQGKPPTKKAKVLHKAAWSAKIGAFLHSQGTGQLADGTPTGQDALVLGFDWGKFLKDHSYKAAPVSCFKHVPLYDQWEDVMKGMKVEVLNSDAVLPSRVYWIASVIQTAGYRVLLRYEGFENDASHDFWCNLGTVDVHPIGWCAINSKILVPPRTIHAKFTDWKGYLMKRLVGSRTLPVDFHIKMVESMKYPFRQGMRLEVVDKSQVSRTRMAVVDTVIGGRLRLLYEDGDSDDDFWCHMWSPLIHPVGWSRRVGHGIKMSERRSDMAHHPTFRKIYCDAVPYLFKKVRAVYTEGGWFEEGMKLEAIDPLNLGNICVATVCKVLLDGYLMICVDGGPSTDGLDWFCYHASSHAIFPATFCQKNDIELTPPKGYEAQTFNWENYLEKTKSKAAPSRLFNMDCPNHGFKVGMKLEAVDLMEPRLICVATVKRVVHRLLSIHFDGWDSEYDQWVDCESPDIYPVGWCELTGYQLQPPVAAEPATPLKAKEATKKKKKQFGKKRKRIPPTKTRPLRQGSKKPLLEDDPQGARKISSEPVPGEIIAVRVKEEHLDVASPDKASSPELPVSVENIKQETDD [L3MBTL2]”, the “solubility in G1/S (log2)” value in series [1] is -0.293. For the same sequence, the “solubility change mitosis (log2)” value in series [2] was determined as 0.0658.
For the sequence “MELLCCEGTRHAPRAGPDPRLLGDQRVLQSLLRLEERYVPRASYFQCVQREIKPHMRKMLAYWMLEVCEEQRCEEEVFPLAMNYLDRYLSCVPTRKAQLQLLGAVCMLLASKLRETTPLTIEKLCIYTDHAVSPRQLRDWEVLVLGKLKWDLAAVIAHDFLAFILHRLSLPRDRQALVKKHAQTFLALCATDYTFAMYPPSMIATGSIGAAVQGLGACSMSGDELTELLAGITGTEVDCLRACQEQIEAALRESLREASQTSSSPAPKAPRGSSSQGPSQTSTPTDVTAIHL [CCND3]”, the “solubility in G1/S (log2)” value in series [1] turned out to be 0.226. For the same sequence, the “solubility change mitosis (log2)” value in series [2] is -0.386.
The like results for “MEPPMEPSGGEQEPGAVRFLDLPWEDVLLPHVLNRVPLRQLLRLQRVSRAFRSLVQLHLAGLRRFDAAQVGPQIPRAALARLLRDAEGLQELALAPCHEWLSDEDLVPVLARNPQLRSVALGGCGQLSRRALGALAEGCPRLQRLSLAHCDWVDGLALRGLADRCPALEELDLTACRQLKDEAIVYLAQRRGAGLRSLSLAVNANVGDAAVQELARNCPELHHLDLTGCLRVGSDGVRTLAEYCPVLRSLRVRHCHHVAESSLSRLRKRGVDIDVEPPLHQALVLLQDMAGFAPFVNLQV [FBXL15]” were, in that order, 0.189 and -0.195.
With “MERKRWECPALPQGWEREEVPRRSGLSAGHRDVFYYSPSGKKFRSKPQLARYLGGSMDLSTFDFRTGKMLMSKMNKSRQRVRYDSSNQVKGKPDLNTALPVRQTASIFKQPVTKITNHPSNKVKSDPQKAVDQPRQLFWEKKLSGLNAFDIAEELVKTMDLPKGLQGVGPGCTDETLLSAIASALHTSTMPITGQLSAAVEKNPGVWLNTTQPLCKAFMVTDEDIRKQEELVQQVRKRLEEALMADMLAHVEELARDGEAPLDKACAEDDDEEDEEEEEEEPDPDPEMEHV [MBD3]”, the “solubility in G1/S (log2)” value in series [1] was 0.334. In series [2], the “solubility change mitosis (log2)” value stood at 0.629.
In the case of “MERMNWLSRLASRGPGHRIPQGANLQTPVMADPETCLMVFKNHWSQVVRILERQGPRAAPGGADDLSAVRNHTYQMLTLLAEDRAVPSAPTGPGPLLEFALHEDLLTRVLTWQLQWDELGDGVEERRAEQLKLFEMLVSEARQPLLRHGPVREALLTLLDACGRPVPSSPALDEGLVLLLSQLCVCVAQEPSLLEFFLQPPPEPGAAPRLLLFSRLVPFVHREGTLGQQARDALLLLMALSAGSPTVGRYIADHSYFCPVLATGLSALYSSLPRKIEVPGDDWHCLRREDWLGVPALALFMSSLEFCNAVIQVAHPLVQKQLVDYIHNGFLVPVMGPALHKTSVEEMIASTAYLELFLRSISEPALLRTFLRFLLLHRHDTHTILDTLVARIGSNSRLCMVSLSLFRTLLNLSCEDVLLQLVLRYLVPCNHVMLSQKPAVRDVDLYGRAADKFLSLIPRCCRHHAPSPPRPEHASWARGPGSPSVDSSSVTTVPRPSTPSRLALFLRQQSLGGSESPGPAPCSPGLSASPASSPGRRPTPAEEPGELEDNYLEYLREARRGVDRCVRACRTWSAPYDGERPSPEPSPFGSRTKKRSLLPEEDRNNVGEGEEEELGRRGRAGGAGEGPGHLPPPQLNGVPGSWPEGAKKVRLVPKEGAGELLEGISEGMAGLEGFGQELRELEVALSNGGTGSESPLEPPLPLEEEEAYESFTCPPEPPGPFLSSPLRTLNQLPSQPFTGPFMAVLFAKLENMLQNSVYVNFLLTGLVAQLACHPQPLLRSFLLNTNMVFQPSVKSLLQVLGSVKNKIENFAASQEDFPALLSKAKKYLIARGKLDWAEGPAAGPAPRRSDPLVKSRRPSLGELLLRHAHSPTRARQAAQLVLQPGRDGAGLGLSGGSPGASTPVLLTRGGAPERQGEALRVKNAVYCAVIFPEFLKELAAISQAHAVTSPFLLETSEEGSGPLISGCGPLNP [FAM160A2]”, the “solubility in G1/S (log2)” value in series [1] is 0.177. For the same sequence, in series [2], the “solubility change mitosis (log2)” value came out at 0.0167.
Take “METPPVNTIGEKDTSQPQQEWEKNLRENLDSVIQIRQQPRDPPTETLELEVSPDPASQILEHTQGAEKLVAELEGDSHKSHGSTSQMPEALQASDLWYCPDGSFVKKIVIRGHGLDKPKLGSCCRVLALGFPFGSGPPEGWTELTMGVGPWREETWGELIEKCLESMCQGEEAELQLPGHSGPPVRLTLASFTQGRDSWELETSEKEALAREERARGTELFRAGNPEGAARCYGRALRLLLTLPPPGPPERTVLHANLAACQLLLGQPQLAAQSCDRVLEREPGHLKALYRRGVAQAALGNLEKATADLKKVLAIDPKNRAAQEELGKVVIQGKNQDAGLAQGLRKMFG [FKBPL]”: in series [1], the “solubility in G1/S (log2)” value stood at 0.618. Besides, in series [2], the “solubility change mitosis (log2)” value stood at 0.144.

These data come from the supplement of paper PMC5998384.
